How the values were obtained:
[1] = target: hu IGF-1R(ECD)-C3-muIgG1Fc (human; mouse); experiment: ORIGEN competition on IGF-1R(ECD)-C3-muFc beads; competitor 1 nM Ru-IGF-1
[2] = target: hu IGF-1R(ECD)-C3-muIgG1Fc (human; mouse); experiment: ORIGEN competition on IGF-1R(ECD)-C3-muFc beads; competitor 2 nM Ru-IGF-2

Max (%) maximum level of inhibition at 1 µM antibody [1] [%]	Max (%) maximum level of inhibition at 1 µM antibody [2] [%]	Substance
89	99	murine anti-IGF-1R antibody 1H7 (Santa Cruz Biotechnology)
91	–	murine anti-IGF-1R antibody αIR3 (Calbiochem)
